Measured values as given in US20230372551A1, “RADIOLABELED LIGANDS FOR TARGETED PET/SPECT IMAGING AND METHODS OF THEIR USE” (priority 2020, published 2023).
Non-standard residues stand in square brackets, D forms with d. Residues, ends and D or L forms follow the SMILES beside them. *: point of attachment. X1 = CC(=O)N(O)CCCCCNC(=O)CCC(=O)N(O)CCCCCNC(=O)CCC(=O)N(O)CCCCCNC(=O)CCN1C(=O)CC(*)C1=O

Experiments:
[1] = in vivo; parameters: species or system BALB/c mice; details: BALB/c, mouse, total radioactivity
Protocol: (§1) In vivo animal PET imaging and biodistribution. All injections were less than 200 μL with <10% EtOH in sterile PBS. PET images were obtained with the mice under anesthesia in an Inveon PET-CT at 4-144 h p.i. All images were analyzed using 3D Slicer (www.slicer.org). Dissections for ex vivo biodistribution were performed on mice after C02 asphyxiation or cervical dislocation while anesthetized at reported time points. Weight of the syringe prior to injection and after injection was used to determine the mass of injectate. Activity of the syringe prior to injection and after injection was used to determine the percent of injectate administered. The mass injected was corrected by the percent of radioactivity injected. Four to five aliquots (10 μL) were weighed and counted as internal standards for each study. All of the collected organs were counted using an automatic gamma counter (Wizard 3″, PerkinElmer, Waltham, MA). The total injected dose was found as the mass injected dose×fraction radioactivity injected×internal standard average counts/g. The percent injected dose (% ID) was determined as the counts for the tissue×100/total injected dose. The % ID/g was calculated as the % ID/tissue weight. The average and standard deviation of the % ID and % ID/g was determined using normal methods (n-1) for each set of mice.
(§2) 4T1 orthotopic BALB c mouse model. Animal studies were conducted according to MSKCC IACUC-approved animal protocol.
(§3) The 4T1 cells derived from spontaneous breast tumor in a BALB/c mouse (Karmanos Cancer Institute, Detroit, MI) were cultured in Dulbecco's modified Eagle's high glucose media with 10% FCS, 2 mM L-glutamine, penicillin, and streptomycin. The 4T1 cells derived from ATCC (Manassas, VA) were cultured in RPMI-1640 medium modified to contain 2 mM L-glutamine, 10 mM HEPES, 1 mM sodium pyruvate, 4.5 g/L glucose, 1.5 g/L NaHCO3, penicillin, and streptomycin.
(§4) The 4T1 cells described above were removed from the flasks containing the culture, concentrated, and resuspended in minimal media for cell counting. […]

[2] = system: 4T1 tumors; test: in vivo; parameters: species or system BALB/c mice; details: mouse
Protocol: as §1, §2, §3, §4

[3] = in vivo; details: male, athymic nude, mouse, 200 uCi (1.2 nmol), total radioactivity, ex vivo distribution
Protocol: All injections were less than 200 μL with <10% EtOH in sterile PBS. […] All images were analyzed using 3D Slicer (www.slicer.org). Dissections for ex vivo biodistribution were performed on mice after C02 asphyxiation or cervical dislocation while anesthetized at reported time points. Weight of the syringe prior to injection and after injection was used to determine the mass of injectate. Activity of the syringe prior to injection and after injection was used to determine the percent of injectate administered. The mass injected was corrected by the percent of radioactivity injected. Four to five aliquots (10 μL) were weighed and counted as internal standards for each study. All of the collected organs were counted using an automatic gamma counter (Wizard 3″, PerkinElmer, Waltham, MA). […] The percent injected dose (% ID) was determined as the counts for the tissue×100/total injected dose. The % ID/g was calculated as the % ID/tissue weight. The average and standard deviation of the % ID and % ID/g was determined using normal methods (n-1) for each set of mice.
Tissue samples were collected for additional ex vivo biodistribution studies to confirm the PET data results.

SMILES: CC(=O)N(O)CCCCCNC(=O)CCC(=O)N(O)CCCCCNC(=O)CCC(=O)N(O)CCCCCNC(=O)CCN1C(=O)CC(SC[C@@H](NC(=O)[C@@H](C)N)C(=O)N[C@H](CC(=O)O)C(=O)N[C@H](CC(=O)O)C(=O)N[C@H](CCC(N)=O)C(=O)N[C@H](CC(N)=O)C(=O)N2CCC[C@@H]2C(=O)N[C@H](Cc2c[nH]c3ccccc23)C(=O)N[C@H](CCCNC(=N)N)C(=O)N[C@H](C)C(=O)N[C@H](Cc2ccc(O)cc2)C(=O)N[C@H](CC(C)C)C(=O)N[C@H](CC(=O)O)C(=O)N[C@H](CC(C)C)C(=O)N[C@H](CC(C)C)C(=O)N[C@H](Cc2ccccc2)C(=O)N2CCC[C@@H]2C(=O)N[C@@H](C(=O)N[C@H](CC(=O)O)C(=O)N[C@@H](C(=O)N[C@H](CC(C)C)C(=O)N[C@H](CC(C)C)C(=O)N[C@H](CC(C)C)C(=O)N[C@H](CC(=O)O)C(=O)N[C@H](CC(C)C)C(=O)N[C@H](CC(C)C)C(=O)N[C@H](Cc2c[nH]c3ccccc23)C(=O)O)[C@H](C)O)[C@H](C)O)C1=O (stereo partly drawn) [[^89Zr]Zr-DFO-cys-Var3pHLIP, metal not drawn] (H-[dA][dC](X1)[dD][dD][dQ][dN][dP][dW][dR][dA][dY][dL][dD][dL][dL][dF][dP][dT][dD][dT][dL][dL][dL][dD][dL][dL][dW]-OH; N-terminus and C-terminus assumed)
- tissue uptake [1]: ~15 %ID/g
- time until which tumor uptake continues to increase [2]: approximately 48 h
- circulatory half-life ([2]; 5 ug): long circulatory half-life
- tissue uptake at 48 h ([3]; Femur): 1.4 ± 0.1 %ID/g
- tissue uptake at 48 h ([3]; Muscle): 0.6 ± 0.7 %ID/g
